9 molecules from patent US7229806B2, “Microbial conversion of glucose to para-hydroxystyrene” (E. I. du Pont de Nemours and Company, priority 2002, dated 2007) can be followed below.

Where only a bound is given, the exact number is not on record here.

Usually Ki stands for a dissociation constant, usually derived from enzyme kinetics or from competition with a known ligand. By Km is commonly meant the substrate concentration at which the rate is half of its maximum.

The target of series [1] is TAL activity of the PAL/TAL enzyme (Rhodotorula toruloides, UniProt P11544). Description: Inhibition of TAL activity by pHCA. Format: biochemical, R. glutinis. An excerpt: (§1) An E. coli strain containing the wild type pal/tal gene (PAL/TAL ratio of 2.0) uses both PAL and TAL routes to convert glucose to both CA and pHCA. […] Based on the kinetic information it is expected that the presence of phenylalanine would interfere with the TAL activity of the enzyme.

Series [2] relates to E. coli NST74. Description: Toxicity of pHCA and pHS to the cells. Format: cell-based. The following applies: previous studies.
Series [3] is described as follows: Characterization of purified PDC enzymes (pHCA as substrate). Format: biochemical. Conditions: PDC enzyme. As to the method:
The reaction was initiated by the addition of 1.0 μL of enzyme to a 1.0 mL solution containing 25 mM phosphate buffer, pH 6.0, and 0.2 mM pHCA in a plastic, UV transparent cuvette. The reaction was then followed for 5 minutes spectrophotometrically at 315 nm at room temperature, using a molar extinction coefficient of […] for pHCA disappearance. The specific activity was expressed as micromoles of pHCA degraded per minute per milligram of protein.
The characteristics of the PDC enzymes isolated from L. plantarum and B. subtilis were obtained using standard spectrometric and electrophoretic techniques and are listed in Table 5.

Series [4] in a line: TAL/PAL activity ratio of wild type and mutant PAL/TAL enzymes, separate TAL and PAL measurements in whole cells. Conditions: ratio of TAL catalytic activity to PAL catalytic activity. Format: biochemical. As to the method: In order to select for those mutants having genes encoding proteins with enhanced TAL activity, a selection system based on the reversibility of the tyrosine to PHCA reaction was developed. It will be appreciated that the TAL activity responsible for the conversion of tyrosine to pHCA is in a state of equilibrium with the opposite reaction. Mutant genes were cloned by standard methods into E. coli tyrosine auxotrophs, unable to grow in the absence of tyrosine. Transformants were plated on tyrosine minus medium in the presence of suitable concentrations of pHCA. Those colonies which grew under these conditions were picked and analyzed for the presence of the mutant gene. In this fashion, a gene was isolated that expressed an enzyme having a catalytic efficiency of about 12.6×10^3 M^−1sec^−1 and a ratio of TAL catalytic activity to PAL catalytic activity of 1.7 compared to 0.5 for the wild type.
A simple method is disclosed that relies on separate measurements of the TAL and PAL activities in whole cells. The ratio of TAL to PAL activity then may be calculated and quickly compared to wild type activity, to monitor changes in the bio-catalyst activity.
Using the above approach Applicants have identified a variety of mutant PAL enzymes that have increased TAL activity, compared to the wild type gene. These mutants were identified using the methods of mutagenesis and screening described above. The mutants, the altered amino acid residues, and the TAL/PAL activity are summarized below.

The nature of series [5]: Kinetic studies with the PAL/TAL enzyme (Vmax, PAL/TAL ratio). Format: biochemical.
From the text: as §1

In series [1], `O=C(O)C=Cc1ccc(O)cc1` [pHCA, para-Hydroxycinnamic acid] registered an inhibitory constant (Ki) of 16 µM. For the same molecule, the “toxic to the cells” value in series [2] is reported as “toxic”.
On to `C=Cc1ccc(O)cc1` [pHS, para-Hydroxystyrene], for which, in series [2], the “toxic to the cells” value is “toxic”. Moreover, in series [2] (as low as), the “concentration showing toxicity to the cells” value is no less than 500 µg/mL.

B1: L. plantarum: para-hydroxycinnamic acid decarboxylase (pdc1) from L. plantarum, SEQ ID NO:4, expressed in E. coli and purified (protein, listed as Lactobacillus plantarum)
chain: MTKTFKTLDDFLGTHFIYTYDNGWEYEWYAKNDHTVDYRIHGGMVAGRWVTDQKADIVMLTEGIYKISWTEPTGTDVALDFMPNEKKLHGTIFFPKWVEEHPEITVTYQNEHIDLMEQSREKYATYPKLVVPEFANITYMGEGQNNEDVISEAPYKEMPNDIRNGKYLIKTTIV
Regarding B1, the Km in series [3] was found to be 1400 µM.

B2: RM492-1: mutant TAL enzyme, SEQ ID NO:18 (protein)
chain: MAPSLDSISHSFANGVASAKQAVNGASTNLAVAGSHLPTTQVTQVDIVEKMLAAPTDSTLELDGYSLNLGDVVSAARKGRPVRVKDSDEIRSKIDKSVEFLRSQLSMSVYGVTTGFGGSADTRTEDAISLQKALLEHQLCGVLPSSFDSFRLGRGLENSLPLEVVRGAMTIRVNSLTRGHSAVRLVVLEALTNFLNHGITPIVPLRGTISASGDLSPLSYIAAAISGHPDSKVHVVHEGKEKILYAREAMALFNLEPVVLGPKEGLGLVNGTAVSASMATLALHDAHMLSLLSQSLTAMTVEAMVGHAGSFHPFLHDVTRPHPTQIEVAGNIRKLLEGSRFAVHHEEEVKVKDDEGILRQDRYPLRTSPQWLGPLVSDLIHAHAVLTIEAGQSTTDNPLIDVENKTSHHGGNFQAAAVANTMEKTRLGLAQIGKLNFTQLTEMLNAGMNRGLPSCLAAEDPSLSYHCKGLDIAAAAYTSELGHLANPVTTHVQPAEMANQAGNSLALISARRTTESNDVLSLLLATHLYCVLQAIDLRATEFEFKKQFGPAIVSLIDQHFGSAMTGSNLRDELVEKVNKTLAKRLEQTNSYDLVPRWHDAFSFAAGTVVEVLSSTSLSLAAVNAWKVAAAESAISLTRQVRETFWSAASTSSPALSYLSPRTQILYAFVREELGVKARRGDVFLGKQEVTIGSNVSKIYEAIKSGRINNVLLKMLA
modifications: not fully specified
As for B2, the TAL/PAL ratio in series [4] amounted to 2.0.

B3: B. subtilis: para-hydroxycinnamic acid decarboxylase (pdc2) from B. subtilis, SEQ ID NO:6, expressed in E. coli and purified (protein, listed as Bacillus subtilis)
chain: MENFIGSHMIYTYENGWEYEIYIKNDHTIDYRIHSGMVAGRWVRDQEVNIVKLTEGVYKVSWTEPTGTDVSLNFMPNEKRMHGIIFFPKWVHEHPEITVCYQNDHIDLMKESREKYETYPKYVVPEFAEITFLKNEGVDNEEVISKAPYEGMTDDIRAGRL
As to B3, the Km in series [3] is 1300 µM.

B4: Wild Type PAL: wild type phenylalanine-tyrosine ammonia lyase (pal/tal) enzyme from R. glutinis, SEQ ID NO:2 (protein, listed as Rhodotorula glutinis)
chain: MAPSLDSISHSFANGVASAKQAVNGASTNLAVAGSHLPTTQVTQVDIVEKMLAAPTDSTLELDGYSLNLGDVVSAARKGRPVRVKDSDEIRSKIDKSVEFLRSQLSMSVYGVTTGFGGSADTRTEDAISLQKALLEHQLCGVLPSSFDSFRLGRGLENSLPLEVVRGAMTIRVNSLTRGHSAVRLVVLEALTNFLNHGITPIVPLRGTISASGDLSPLSYIAAAISGHPDSKVHVVHEGKEKILYAREAMALFNLEPVVLGPKEGLGLVNGTAVSASMATLALHDAHMLSLLSQSLTAMTVEAMVGHAGSFHPFLHDVTRPHPTQIEVAGNIRKLLEGSRFAVHHEEEVKVKDDEGILRQDRYPLRTSPQWLGPLVSDLIHAHAVLTIEAGQSTTDNPLIDVENKTSHHGGNFQAAAVANTMEKTRLGLAQIGKLNFTQLTEMLNAGMNRGLPSCLAAEDPSLSYHCKGLDIAAAAYTSELGHLANPVTTHVQPAEMANQAVNSLALISARRTTESNDVLSLLLATHLYCVLQAIDLRAIEFEFKKQFGPAIVSLIDQHFGSAMTGSNLRDELVEKVNKTLAKRLEQTNSYDLVPRWHDAFSFAAGTVVEVLSSTSLSLAAVNAWKVAAAESAISLTRQVRETFWSAASTSSPALSYLSPRTQILYAFVREELGVKARRGDVFLGKQEVTIGSNVSKIYEAIKSGRINNVLLKMLA
With B4, in series [5] (previous kinetic studies), the “Vmax for PAL” value came out at 5.5 and the “Vmax for TAL” value was 0.76. Also, in series [5] (wild type pal/tal gene in E. coli), the PAL/TAL ratio worked out at 2.0. Also, the TAL/PAL ratio in series [4] stood at 0.5.

B5: RM120-4: mutant TAL enzyme, SEQ ID NO:16 (protein)
chain: MAPSLDSISHSFANGVASAKQAVNGASTNLAVAGSHLPTTQVTQVDIVEKMLAAPTDSTLELDGYSLNLGDVVSAARKGRPVRVKDSDEIRSKIDKSVEFLRSQLSMSVYGVTTGFGGSADTRTEDAISLQKALLEHQLCGVLPSSFDSFRLGRGLENSLPLEVVRGAMTIRVNSLTRGHXAVRLVVLEALTNFLNHGITPIVPLRGTISASGDLSPLSYIAAAISGHPDSKVHXVHEGKEKILYAREAMALFNLEPVVLGPKEGLGLVNGTAVSASMATLALHDAHMLSLLSQSLTAMTVEAMVGHAGSFHPFLHDVTRPHPTQIEVAGNIRKLLEGSRFAVHHEEEVKVKDDEGILRQDRYPLRTSPQWLGPLVSDLIHAHAVLTIEAGQSTTDNPLIDVENKTSHHGGNFQAAAVANTMEKTRLGLAQIGKLNFTQLTEMLNAGMNRGLPSCLAAEDPSLSYHCKGLDIAAAAYTSELGHLANPVTTHVQPAEMANQAVNSLALISARRTTESNDVLSLLLATHLYCVLQAIDLRAXEFEFKKQFGPAIVSLIDQHFGSAMTGSNLRDELVEKVNKTLAKRLEQTNSYDLVPRWHDAFSFAAGTVVEVLSSTSLSLAAVNAWKVAAAESAISLTRQVRETFWSAASTSSPALSYLSPRTQILYAFVREELGVKARRGDVFLGKQEVTIGSNVSKIYEAIKSGRINNVLLKMLA
modifications: Mutant from Rhodotorula glutinis
With B5, the TAL/PAL ratio in series [4] came to 2.0.

B6: RM120-7: mutant TAL enzyme, SEQ ID NO:17 (protein)
chain: MAPSLDSISHSFANGVASAKQAVNGASTNLAVAGSHLPTTQVTQVDIVEKMLAAPTDSTLELDGYSLNLGDVVSAARKGRPVRVKDSDEIRSKIDKSVEFLRSQLSMSVYGVTTGFGGSADTRTEDAISLQKALLEHQLCGVLPSSFDXFRLGRGLENSLPLEVVRGAMTIRVNSLTRGHSAVRLVVLEALTNFLNHGITPXVPLRGTISASGDLSPLSYIAAAISGHPDSKVHVVHEGKEKILYAREAMALFNLEPVVLGPKEGLGLVNGTAVSASMATLALHDAHMLSLLSQSLTAMTVEAMVGHAGSFHPFLHDVTRPHPTQIEVAGNIRKLLEGSRFAVHHEEEVKVKDDEGILRQDRYPLRTSPQWLGPLVSDLIHAHAVLTIEAGQSTTDNPLIDVENKTSHHGGNFQAAAVANTMEKTRLGLAQIGKLNFTQLTEMLNAGMNRGLPSCLAAEDPSLSYHCKGLDIAAAAYTSELGHLANPVTTHVQPAEMANQAVNSLALISARRTTESNDVLSLLLATHLYCVLQAIDLRAXEFEFKKQFGPAIVSLIDQHFGSAMTGSNLRDELVEKVNKTLAKRLEQTNSYDLVPRWHDAFSFAAGTVVEVLSSTSLSLAAVNAWKVAAAESAISLTRQVRETFWSAASTSSPALSYLSPRTQILYAFVREELGVKARRGDVFLGKQEVTIGSNVSKIYEAIKSGRINNVLLKMLA
modifications: Mutant from Rhodotorula glutinis
Turning to B6, the TAL/PAL ratio in series [4] is 0.8.

B7: RM120-1: mutant TAL enzyme, SEQ ID NO:14 (protein)
chain: MAPSLDSISHSFANGVASAKQAVNGASTNLAVAGSHLPTTQVTQVDIVEKMLAAPTDSTLELDGYSLNLGDVVSAARKGRPVRVKDSDEIRSKIDKSVEFLRSQLSMSVYGVTTGFGGSADTRTEXAISLQKALLEHXLCGVLPSSFDSFRLGRGLENSLPLEVVRGAMTIRVNSLTRGHSAVRLVVLEALTNFLNHGITPIVPLRGTISASGDLSPLSYIAAAISGHPDSKVHVVHEGKEKILYAREAMALFNLEPVVLGPKEGLGLVNGTAVSASMATLALHDAHMLSLLSQSLTAMTVEAMVGHAGSFHPFLHDVTRPHPTQIEVAGNIRKLLEGSRFAVHHEEEVKVKDDEGILRQDRYPLRTSPQWLGPLVSDLIHAHAVLTIEAGQSTTDNPLIDVENKTSHHGGNFQAAAVANTMEKTRLGLAQIGKLNFTQLTEMLNAGMNRGLPSCLAAEDPSLSYHCKGLDIAAAAYTSELGHLANPVTTHVQPAEMANQAVNSLALISARRTTESNDVLSLLLATHLYCVLQAIDLRAXEFEFKKQFGPAIVSLIDQHFGSAMTGSNLRDELVEKVNKTLAKRLEQTNSYDLVPRWHDAFSFAAGTVVEVLSSTSLSLAAVNAWKVAAAESAISLTRQVRETFWSAASTSSPALSYLSPRTQILYAFVREELGVKARRGDVFLGKQEVTIGSNVSKIYEAIKSGRINNVLLKMLA
modifications: Mutant from Rhodotorula glutinis
Consider B7, for which the TAL/PAL ratio in series [4] is on record as 7.2.
